In patent publication WO2004046187A2 (dated 2004):

T1: LexA DBD (made from the empty pBTM116 vector) (UniProt P0A7C2 1-202)
T1 construct: domain: LexA DBD; Control bait in yeast
T1 sequence: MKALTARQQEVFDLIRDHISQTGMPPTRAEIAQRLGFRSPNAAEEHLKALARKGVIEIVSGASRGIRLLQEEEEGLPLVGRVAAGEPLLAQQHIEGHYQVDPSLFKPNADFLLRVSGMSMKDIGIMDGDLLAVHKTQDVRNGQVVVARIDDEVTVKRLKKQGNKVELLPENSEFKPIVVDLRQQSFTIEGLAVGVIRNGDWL

B1: anti-RAS scFvI21, purified from bacterial periplasm (pHEN2) (scFv)
scFv: EVQLLESGGGLVQPGGSLRLSCAASGFTFSSYAMSWVRQAPGKGLEWVSTISYGGSNTNYADSVKARFTISRDNSKNTLYLQMNSLRAEDTAVYYCAKGNNAFDYWGQGTLVTVSSGGGGSGGGGSGGGGSTDIQMTQSPSSLSASVGDRVTITCRASQSISSYLNWYQQKPGKAPKLLIYNASALQSGVPSRFSGSGSGTDFTLTISSLQPEDFATYYCQQYTSTPRTFGQGTKVEIKR
notes: also called 121 (as the text prints it); ICAb 121; not shown: C-terminal His6-tag and myc-tag from pHEN2
B2: scFvI21-VP16 activation domain fusion (scFv)
scFv: EVQLLESGGGLVQPGGSLRLSCAASGFTFSSYAMSWVRQAPGKGLEWVSTISYGGSNTNYADSVKARFTISRDNSKNTLYLQMNSLRAEDTAVYYCAKGNNAFDYWGQGTLVTVSSGGGGSGGGGSGGGGSTDIQMTQSPSSLSASVGDRVTITCRASQSISSYLNWYQQKPGKAPKLLIYNASALQSGVPSRFSGSGSGTDFTLTISSLQPEDFATYYCQQYTSTPRTFGQGTKVEIKR
notes: In the mammalian vector the scFv stands on the N-terminal side of VP16; the same id is used for the yeast pVP16 prey; also called 121; ICAb 121

How the values were obtained:
[1] = target: T2, Recombinant oncogenic HRAS (G12V; residues 1 - 166) loaded with GppNp (human, UniProt P01112 1-166); test: SPR, BIAcore 2000; HRASG12V-GppNp immobilised on CM5 chip (about 1500 RU), purified scFv injected
T2 construct: range 1-166; this form was used as antigen throughout the in vitro assays; also called HRASG12V-GppNp; RASG12V-GppNp

[2] = target: T1, LexA DBD (made from the empty pBTM116 …); test: yeast two-hybrid (His-independent growth, β-gal activation)
[3] = target: T3, non-relevant antigen (β-galactosidase) bait in yeast (UniProt P00722 2-1024 = β-galactosidase); test: as above
T3 construct: Used as non-relevant bait in the yeast two-hybrid test
T3 sequence (P00722 2-1024 limits assumed): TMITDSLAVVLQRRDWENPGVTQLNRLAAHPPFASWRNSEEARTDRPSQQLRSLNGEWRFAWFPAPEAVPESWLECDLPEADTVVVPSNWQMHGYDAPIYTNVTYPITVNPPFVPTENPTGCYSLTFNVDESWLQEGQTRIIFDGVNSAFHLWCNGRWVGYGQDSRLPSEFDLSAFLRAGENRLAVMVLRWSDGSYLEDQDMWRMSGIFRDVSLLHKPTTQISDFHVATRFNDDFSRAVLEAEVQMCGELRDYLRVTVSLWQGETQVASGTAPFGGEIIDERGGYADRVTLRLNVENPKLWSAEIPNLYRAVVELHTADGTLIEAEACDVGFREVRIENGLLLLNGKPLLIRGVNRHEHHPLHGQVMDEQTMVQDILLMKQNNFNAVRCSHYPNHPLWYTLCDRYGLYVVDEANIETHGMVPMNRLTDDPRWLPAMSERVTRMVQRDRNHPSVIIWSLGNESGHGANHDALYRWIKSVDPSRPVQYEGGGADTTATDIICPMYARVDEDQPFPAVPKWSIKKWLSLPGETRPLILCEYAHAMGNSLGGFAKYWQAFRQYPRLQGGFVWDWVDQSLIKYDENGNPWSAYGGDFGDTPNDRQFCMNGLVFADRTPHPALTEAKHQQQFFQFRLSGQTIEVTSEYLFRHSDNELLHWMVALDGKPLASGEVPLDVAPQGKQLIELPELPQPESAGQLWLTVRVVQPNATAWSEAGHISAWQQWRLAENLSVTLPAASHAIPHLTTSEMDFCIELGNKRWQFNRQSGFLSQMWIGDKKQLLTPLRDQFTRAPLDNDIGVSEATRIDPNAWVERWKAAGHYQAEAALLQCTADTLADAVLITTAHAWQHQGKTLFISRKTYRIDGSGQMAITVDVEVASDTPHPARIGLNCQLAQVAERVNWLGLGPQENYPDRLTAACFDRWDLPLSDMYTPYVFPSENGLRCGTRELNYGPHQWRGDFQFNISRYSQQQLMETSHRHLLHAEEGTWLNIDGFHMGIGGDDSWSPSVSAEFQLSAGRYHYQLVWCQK

Binder	Kd [1] [nM]	binding result [2]	binding result [3]
B1	2160		
B2		no binding	no binding
